biological target: T1, ARHGEF11, O15085; assay: holdup assay; set-up: key: below the threshold = too weak to quantify, mostly under pKd 3.1 to 4; settings: plain residues with an end cap or a label only (N-terminal biotin on a linker: ado-ado)
T1 sequence (O15085 42-136, limits assumed, looked up): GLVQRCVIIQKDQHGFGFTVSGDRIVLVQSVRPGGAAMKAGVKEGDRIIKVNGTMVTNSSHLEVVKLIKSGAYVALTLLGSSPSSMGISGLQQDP

pKd	Binder
4.32	KSRVAFFEEL [NF2, P35240;P35240-1]

biological target: CASK, O14936; assay: holdup assay; set-up: key: below the threshold = too weak to quantify, mostly under pKd 3.1 to 4; settings: plain residues with an end cap or a label only (N-terminal biotin on a linker: ado-ado)
Sequence (O14936 487-570): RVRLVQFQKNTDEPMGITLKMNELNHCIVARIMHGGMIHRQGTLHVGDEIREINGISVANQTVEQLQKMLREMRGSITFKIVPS

pKd	Binder
below the threshold	KSRVAFFEEL [NF2, P35240;P35240-1]

biological target: T2, DFNB31_2, Q9P202; assay: holdup assay; set-up: key: below the threshold = too weak to quantify, mostly under pKd 3.1 to 4; settings: plain residues with an end cap or a label only (N-terminal biotin on a linker: ado-ado)
T2 sequence (Q9P202 274-371, limits assumed, looked up): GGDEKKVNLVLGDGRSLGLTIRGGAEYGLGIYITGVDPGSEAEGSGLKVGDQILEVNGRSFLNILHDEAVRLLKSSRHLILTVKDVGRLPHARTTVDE

pKd	Binder
below the threshold	KSRVAFFEEL [NF2, P35240;P35240-1]

biological target: DLG5_1, Q8TDM6; assay: holdup assay; set-up: key: below the threshold = too weak to quantify, mostly under pKd 3.1 to 4; settings: plain residues with an end cap or a label only (N-terminal biotin on a linker: ado-ado)
Sequence (Q8TDM6 617-713): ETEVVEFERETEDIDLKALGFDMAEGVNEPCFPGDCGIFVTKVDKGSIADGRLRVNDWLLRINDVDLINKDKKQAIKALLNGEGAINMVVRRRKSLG

pKd	Binder
below the threshold	KSRVAFFEEL [NF2, P35240;P35240-1]

biological target: FRMPD2_1, Q68DX3; assay: holdup assay; set-up: key: below the threshold = too weak to quantify, mostly under pKd 3.1 to 4; settings: plain residues with an end cap or a label only (N-terminal biotin on a linker: ado-ado)
Sequence (Q68DX3 770-861): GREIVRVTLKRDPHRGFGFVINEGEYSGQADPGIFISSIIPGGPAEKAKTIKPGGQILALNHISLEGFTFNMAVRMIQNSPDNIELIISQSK

pKd	Binder
below the threshold	KSRVAFFEEL [NF2, P35240;P35240-1]

biological target: T3, GRIP1_3, Q9Y3R0; assay: holdup assay; set-up: key: below the threshold = too weak to quantify, mostly under pKd 3.1 to 4; settings: plain residues with an end cap or a label only (N-terminal biotin on a linker: ado-ado)
T3 sequence (Q9Y3R0 247-346, limits assumed, looked up): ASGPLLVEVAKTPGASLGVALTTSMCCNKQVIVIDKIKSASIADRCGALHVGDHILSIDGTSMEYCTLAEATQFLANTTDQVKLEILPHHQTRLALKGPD

pKd	Binder
below the threshold	KSRVAFFEEL [NF2, P35240;P35240-1]

biological target: GRIP2_7, Q9C0E4; assay: holdup assay; set-up: key: below the threshold = too weak to quantify, mostly under pKd 3.1 to 4; settings: plain residues with an end cap or a label only (N-terminal biotin on a linker: ado-ado)
Sequence (Q9C0E4 934-1023): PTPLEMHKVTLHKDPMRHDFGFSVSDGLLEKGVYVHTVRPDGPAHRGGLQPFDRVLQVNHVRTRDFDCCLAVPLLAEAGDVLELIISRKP

pKd	Binder
below the threshold	KSRVAFFEEL [NF2, P35240;P35240-1]

biological target: Inadl_5, Q8NI35; assay: holdup assay; set-up: key: below the threshold = too weak to quantify, mostly under pKd 3.1 to 4; settings: plain residues with an end cap or a label only (N-terminal biotin on a linker: ado-ado)
Sequence (Q8NI35 673-780): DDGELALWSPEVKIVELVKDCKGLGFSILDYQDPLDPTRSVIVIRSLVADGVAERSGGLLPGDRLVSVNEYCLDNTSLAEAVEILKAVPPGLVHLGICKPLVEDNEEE

pKd	Binder
below the threshold	KSRVAFFEEL [NF2, P35240;P35240-1]

biological target: T4, LIN7C, Q9NUP9; assay: holdup assay; set-up: key: below the threshold = too weak to quantify, mostly under pKd 3.1 to 4; settings: plain residues with an end cap or a label only (N-terminal biotin on a linker: ado-ado)
T4 sequence (Q9NUP9 88-185, limits assumed, looked up): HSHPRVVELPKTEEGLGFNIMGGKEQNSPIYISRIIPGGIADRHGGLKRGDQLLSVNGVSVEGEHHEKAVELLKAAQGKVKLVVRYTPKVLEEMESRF

pKd	Binder
below the threshold	KSRVAFFEEL [NF2, P35240;P35240-1]

biological target: T5, LNX2_3, Q8N448; assay: holdup assay; set-up: key: below the threshold = too weak to quantify, mostly under pKd 3.1 to 4; settings: plain residues with an end cap or a label only (N-terminal biotin on a linker: ado-ado)
T5 sequence (Q8N448 463-564, limits assumed, looked up): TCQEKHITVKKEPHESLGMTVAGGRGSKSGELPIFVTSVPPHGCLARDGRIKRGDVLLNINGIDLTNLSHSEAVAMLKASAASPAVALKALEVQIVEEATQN

pKd	Binder
below the threshold	KSRVAFFEEL [NF2, P35240;P35240-1]

biological target: MAGI2_2, Q86UL8; assay: holdup assay; set-up: key: below the threshold = too weak to quantify, mostly under pKd 3.1 to 4; settings: plain residues with an end cap or a label only (N-terminal biotin on a linker: ado-ado)
Sequence (Q86UL8 410-522): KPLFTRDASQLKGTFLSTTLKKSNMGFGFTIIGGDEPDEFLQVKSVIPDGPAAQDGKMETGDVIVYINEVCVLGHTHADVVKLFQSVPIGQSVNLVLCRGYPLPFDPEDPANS

pKd	Binder
below the threshold	KSRVAFFEEL [NF2, P35240;P35240-1]

biological target: MAST1, Q9Y2H9; assay: holdup assay; set-up: key: below the threshold = too weak to quantify, mostly under pKd 3.1 to 4; settings: plain residues with an end cap or a label only (N-terminal biotin on a linker: ado-ado)
Sequence (Q9Y2H9 962-1065): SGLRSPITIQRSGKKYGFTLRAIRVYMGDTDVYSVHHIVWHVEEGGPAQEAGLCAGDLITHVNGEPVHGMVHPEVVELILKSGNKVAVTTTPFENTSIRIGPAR

pKd	Binder
4.37	KSRVAFFEEL [NF2, P35240;P35240-1]

biological target: T6, MPP2, Q14168; assay: holdup assay; set-up: key: below the threshold = too weak to quantify, mostly under pKd 3.1 to 4; settings: plain residues with an end cap or a label only (N-terminal biotin on a linker: ado-ado)
T6 sequence (Q14168 180-250, limits assumed, looked up): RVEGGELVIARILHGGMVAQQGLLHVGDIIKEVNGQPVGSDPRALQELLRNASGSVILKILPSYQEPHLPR

pKd	Binder
below the threshold	KSRVAFFEEL [NF2, P35240;P35240-1]

biological target: T7, RADIL, Q96JH8; assay: holdup assay; set-up: key: below the threshold = too weak to quantify, mostly under pKd 3.1 to 4; settings: plain residues with an end cap or a label only (N-terminal biotin on a linker: ado-ado)
T7 sequence (Q96JH8 971-1071, limits assumed, looked up): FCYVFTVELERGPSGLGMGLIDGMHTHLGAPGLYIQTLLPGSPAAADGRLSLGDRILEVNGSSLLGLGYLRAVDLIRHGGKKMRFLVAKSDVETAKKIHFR

pKd	Binder
4.44	KSRVAFFEEL [NF2, P35240;P35240-1]

biological target: T8, SIPA1L2, Q9P2F8; assay: holdup assay; set-up: key: below the threshold = too weak to quantify, mostly under pKd 3.1 to 4; settings: plain residues with an end cap or a label only (N-terminal biotin on a linker: ado-ado)
T8 sequence (Q9P2F8 945-1036, limits assumed, looked up): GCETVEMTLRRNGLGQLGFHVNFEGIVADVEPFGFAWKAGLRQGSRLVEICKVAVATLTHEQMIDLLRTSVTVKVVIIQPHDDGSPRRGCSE

pKd	Binder
below the threshold	KSRVAFFEEL [NF2, P35240;P35240-1]

biological target: T9, TJP3_3, O95049; assay: holdup assay; set-up: key: below the threshold = too weak to quantify, mostly under pKd 3.1 to 4; settings: plain residues with an end cap or a label only (N-terminal biotin on a linker: ado-ado)
T9 sequence (O95049 375-456, limits assumed, looked up): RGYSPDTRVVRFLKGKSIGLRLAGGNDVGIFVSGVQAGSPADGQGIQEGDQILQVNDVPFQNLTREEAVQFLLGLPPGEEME

pKd	Binder
below the threshold	KSRVAFFEEL [NF2, P35240;P35240-1]

— article PMC9482650, “Quantitative fragmentomics allow affinity mapping of interactomes” (Nature Communications, 2022)
